The values below come from US20140179604A1 (U S A REPRESENTED BY THE DEPARTMENT OF VETERANS AFFAIRS, published 2014).

In assay [1] the target is T1, GHRH receptor (membrane receptors of human anterior pituitary cells) (human) (UniProt Q02643).
T1 sequence (looked up): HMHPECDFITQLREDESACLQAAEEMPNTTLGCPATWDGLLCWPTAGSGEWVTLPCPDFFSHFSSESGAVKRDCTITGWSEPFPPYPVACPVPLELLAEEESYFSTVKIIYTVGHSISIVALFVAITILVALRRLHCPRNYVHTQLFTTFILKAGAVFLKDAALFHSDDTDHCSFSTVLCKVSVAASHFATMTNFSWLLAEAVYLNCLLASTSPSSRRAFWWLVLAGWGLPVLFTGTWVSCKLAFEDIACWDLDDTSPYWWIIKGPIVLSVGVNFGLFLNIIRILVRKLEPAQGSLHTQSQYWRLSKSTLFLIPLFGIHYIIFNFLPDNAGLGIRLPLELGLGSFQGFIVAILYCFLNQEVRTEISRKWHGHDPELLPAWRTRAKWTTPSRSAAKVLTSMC
Put plainly: competition with 125I-[His1,Nle27]hGHRH(1-32)NH2, human pituitary membranes.

Assay [2] deals with T1, GHRH receptor (membrane receptors of human anterior pituitary cells) (human). Put plainly: competition with 125I-JV-1-42, human pituitary membranes.
In assay [3] the target is T2, GHRH receptor (membrane receptors of human anterior pituitary cells) (human, UniProt Q02643 23-423).
T2 construct: whole, on cells; Native receptor in a membrane fraction of purchased normal human pituitaries, not intact cells; also called hGHRH receptor; human pituitary membrane homogenates
T2 sequence (looked up): T1 sequence (looked up)
Put plainly: competition with [His1,125I-Tyr10,Nle27]hGHRH(1-32)NH2, human pituitary membranes. From the text:
Normal human pituitaries were purchased from the National Hormone and Peptide Program (A. F. Parlow, Los Angeles, County Harbor—UCLA Medical Center, Torrance, Calif.).

Non-standard residues stand in square brackets, D forms with d. *: point of attachment. Desaminotyrosyl = O=C(CCc1ccc(O)cc1)*; hArg = N=C(N)NCCCC[C@H](N)C(=O)O; Nle = CCCC[C@H](N)C(=O)O; Orn = NCCC[C@H](N)C(=O)O; Abu = CC[C@H](N)C(=O)O; Aoc = NCCCCCCCC(=O)O; Ava = NCCCCC(=O)O

B1: P-27407 [Dat^1, Gln^8, Orn^12, Abu^15, Orn^21, Nle^27, Asp^28]hGHRH(1-29)NH-CH3 (peptide, from a related filing)
peptide: [Desaminotyrosyl]ADAIFTQSYR[Orn]VL[Abu]QLSAR[Orn]LLQDI[Nle]DR-NHMe
SMILES: CCCC[C@H](NC(=O)[C@@H](NC(=O)[C@H](CC(=O)O)NC(=O)[C@H](CCC(N)=O)NC(=O)[C@H](CC(C)C)NC(=O)[C@H](CC(C)C)NC(=O)[C@H](CCCN)NC(=O)[C@H](CCCNC(=N)N)NC(=O)[C@H](C)NC(=O)[C@H](CO)NC(=O)[C@H](CC(C)C)NC(=O)[C@H](CCC(N)=O)NC(=O)[C@H](CC)NC(=O)[C@H](CC(C)C)NC(=O)[C@@H](NC(=O)[C@H](CCCN)NC(=O)[C@H](CCCNC(=N)N)NC(=O)[C@H](Cc1ccc(O)cc1)NC(=O)[C@H](CO)NC(=O)[C@H](CCC(N)=O)NC(=O)[C@@H](NC(=O)[C@H](Cc1ccccc1)NC(=O)[C@@H](NC(=O)[C@H](C)NC(=O)[C@H](CC(=O)O)NC(=O)[C@H](C)NC(=O)CCc1ccc(O)cc1)[C@@H](C)CC)[C@@H](C)O)C(C)C)[C@@H](C)CC)C(=O)N[C@@H](CC(=O)O)C(=O)N[C@@H](CCCNC(=N)N)C(=O)NC
B1: in assay [1], the IC50 was found to be 5.01 nM, the Relative affinity (Binding potency) compared to JI-38 came out at 0.54 JI-38 = 1 and the Relative affinity (Binding potency) compared to hGHRH(1-29) (hGHRH(1-29)NH2 = 1) stood at 1.52. Besides, in assay [2], the half-maximal inhibitory concentration (IC50) turned out to be 3 nM and the Relative affinity (Binding potency) vs JI-38 was found to be 1.45 JI-38 = 1.

B2: P-23252 [Dat^1-D-Ala^2, Orn^12, Abu^15, Orn^21, Nle^27, Asp^28, Har^30]hGHRH(1-30)NH2 (peptide)
peptide: [Desaminotyrosyl][dA]DAIFTNSYR[Orn]VL[Abu]QLSAR[Orn]LLQDI[Nle]DR[hArg]-NH2
SMILES: CCCC[C@H](NC(=O)[C@@H](NC(=O)[C@H](CC(=O)O)NC(=O)[C@H](CCC(N)=O)NC(=O)[C@H](CC(C)C)NC(=O)[C@H](CC(C)C)NC(=O)[C@H](CCCN)NC(=O)[C@H](CCCNC(=N)N)NC(=O)[C@H](C)NC(=O)[C@H](CO)NC(=O)[C@H](CC(C)C)NC(=O)[C@H](CCC(N)=O)NC(=O)[C@H](CC)NC(=O)[C@H](CC(C)C)NC(=O)[C@@H](NC(=O)[C@H](CCCN)NC(=O)[C@H](CCCNC(=N)N)NC(=O)[C@H](Cc1ccc(O)cc1)NC(=O)[C@H](CO)NC(=O)[C@H](CC(N)=O)NC(=O)[C@@H](NC(=O)[C@H](Cc1ccccc1)NC(=O)[C@@H](NC(=O)[C@H](C)NC(=O)[C@H](CC(=O)O)NC(=O)[C@@H](C)NC(=O)CCc1ccc(O)cc1)[C@@H](C)CC)[C@@H](C)O)C(C)C)[C@@H](C)CC)C(=O)N[C@@H](CC(=O)O)C(=O)N[C@@H](CCCNC(=N)N)C(=O)N[C@@H](CCCCNC(=N)N)C(N)=O
notes: also called Peptide 23252
Consider B2, for which, in assay [3], the IC50 turned out to be 0.14 nM, the “Relative affinity (Binding potency) vs GHRH” value (“Relative affinity … vs GHRH” for short) was 42.3 GHRH(1-29) = 1 and the “Relative affinity (Binding potency) vs JI-38” value (shortened to “Relative affinity … vs JI-38”) was found to be 13.9 JI-38 = 1.

B3: P-23256 [Dat^1, D-Ala^2, Ala^8, Orn^12, Abu^15, Orn^21, Nle^27, Asp^28, Har^30]hGHRH(1-30)NH2 (peptide)
peptide: [Desaminotyrosyl][dA]DAIFTASYR[Orn]VL[Abu]QLSAR[Orn]LLQDI[Nle]DR[hArg]-NH2
SMILES: CCCC[C@H](NC(=O)[C@@H](NC(=O)[C@H](CC(=O)O)NC(=O)[C@H](CCC(N)=O)NC(=O)[C@H](CC(C)C)NC(=O)[C@H](CC(C)C)NC(=O)[C@H](CCCN)NC(=O)[C@H](CCCNC(=N)N)NC(=O)[C@H](C)NC(=O)[C@H](CO)NC(=O)[C@H](CC(C)C)NC(=O)[C@H](CCC(N)=O)NC(=O)[C@H](CC)NC(=O)[C@H](CC(C)C)NC(=O)[C@@H](NC(=O)[C@H](CCCN)NC(=O)[C@H](CCCNC(=N)N)NC(=O)[C@H](Cc1ccc(O)cc1)NC(=O)[C@H](CO)NC(=O)[C@H](C)NC(=O)[C@@H](NC(=O)[C@H](Cc1ccccc1)NC(=O)[C@@H](NC(=O)[C@H](C)NC(=O)[C@H](CC(=O)O)NC(=O)[C@@H](C)NC(=O)CCc1ccc(O)cc1)[C@@H](C)CC)[C@@H](C)O)C(C)C)[C@@H](C)CC)C(=O)N[C@@H](CC(=O)O)C(=O)N[C@@H](CCCNC(=N)N)C(=O)N[C@@H](CCCCNC(=N)N)C(N)=O
notes: also called Peptide 23256
As for B3, in assay [3], the half-inhibitory concentration (IC50) is 0.04 nM, the “Relative affinity … vs GHRH” value was 148 GHRH(1-29) = 1 and the “Relative affinity … vs JI-38” value is 48.7 JI-38 = 1.

B4: P-21304 [Dat^1, D-Ala^2, Gln^8, Orn^12, Abu^15, Orn^21, Nle^27, Asp^28, Amc^30]hGHRH(1-30)NH2 (peptide)
peptide: [Desaminotyrosyl][dA]DAIFTQSYR[Orn]VL[Abu]QLSAR[Orn]LLQDI[Nle]DR[Aoc]-NH2
SMILES: CCCC[C@H](NC(=O)[C@@H](NC(=O)[C@H](CC(=O)O)NC(=O)[C@H](CCC(N)=O)NC(=O)[C@H](CC(C)C)NC(=O)[C@H](CC(C)C)NC(=O)[C@H](CCCN)NC(=O)[C@H](CCCNC(=N)N)NC(=O)[C@H](C)NC(=O)[C@H](CO)NC(=O)[C@H](CC(C)C)NC(=O)[C@H](CCC(N)=O)NC(=O)[C@H](CC)NC(=O)[C@H](CC(C)C)NC(=O)[C@@H](NC(=O)[C@H](CCCN)NC(=O)[C@H](CCCNC(=N)N)NC(=O)[C@H](Cc1ccc(O)cc1)NC(=O)[C@H](CO)NC(=O)[C@H](CCC(N)=O)NC(=O)[C@@H](NC(=O)[C@H](Cc1ccccc1)NC(=O)[C@@H](NC(=O)[C@H](C)NC(=O)[C@H](CC(=O)O)NC(=O)[C@@H](C)NC(=O)CCc1ccc(O)cc1)[C@@H](C)CC)[C@@H](C)O)C(C)C)[C@@H](C)CC)C(=O)N[C@@H](CC(=O)O)C(=O)N[C@@H](CCCNC(=N)N)C(=O)NCCCCCCCC(N)=O
notes: also called Peptide 21304
As for B4, in assay [3], the IC50 was 0.08 nM, the “Relative affinity … vs GHRH” value is 74 GHRH(1-29) = 1 and the “Relative affinity … vs JI-38” value turned out to be 24.4 JI-38 = 1.

B5: P-23254 [Dat^1, D-Ala^2, Thr^8, Orn^12, Abu^15, Orn^21, Nle^27, Asp^28, Har^30]hGHRH(1-30)NH2 (peptide)
peptide: [Desaminotyrosyl][dA]DAIFTTSYR[Orn]VL[Abu]QLSAR[Orn]LLQDI[Nle]DR[hArg]-NH2
SMILES: CCCC[C@H](NC(=O)[C@@H](NC(=O)[C@H](CC(=O)O)NC(=O)[C@H](CCC(N)=O)NC(=O)[C@H](CC(C)C)NC(=O)[C@H](CC(C)C)NC(=O)[C@H](CCCN)NC(=O)[C@H](CCCNC(=N)N)NC(=O)[C@H](C)NC(=O)[C@H](CO)NC(=O)[C@H](CC(C)C)NC(=O)[C@H](CCC(N)=O)NC(=O)[C@H](CC)NC(=O)[C@H](CC(C)C)NC(=O)[C@@H](NC(=O)[C@H](CCCN)NC(=O)[C@H](CCCNC(=N)N)NC(=O)[C@H](Cc1ccc(O)cc1)NC(=O)[C@H](CO)NC(=O)[C@@H](NC(=O)[C@@H](NC(=O)[C@H](Cc1ccccc1)NC(=O)[C@@H](NC(=O)[C@H](C)NC(=O)[C@H](CC(=O)O)NC(=O)[C@@H](C)NC(=O)CCc1ccc(O)cc1)[C@@H](C)CC)[C@@H](C)O)[C@@H](C)O)C(C)C)[C@@H](C)CC)C(=O)N[C@@H](CC(=O)O)C(=O)N[C@@H](CCCNC(=N)N)C(=O)N[C@@H](CCCCNC(=N)N)C(N)=O
notes: also called Peptide 23254
B5: in assay [3], the IC50 came out at 0.07 nM, the “Relative affinity … vs GHRH” value is 84.5 GHRH(1-29) = 1 and the “Relative affinity … vs JI-38” value came out at 27.8 JI-38 = 1.

B6: P-22327 [Dat^1, Gln^8, Orn^12, Abu^15, Orn^21, Nle^27, Asp^28, Apa^30]hGHRH(1-30)NH2 (peptide, from a related filing)
peptide: [Desaminotyrosyl]ADAIFTQSYR[Orn]VL[Abu]QLSAR[Orn]LLQDI[Nle]DR[Ava]-NH2
SMILES: CCCC[C@H](NC(=O)[C@@H](NC(=O)[C@H](CC(=O)O)NC(=O)[C@H](CCC(N)=O)NC(=O)[C@H](CC(C)C)NC(=O)[C@H](CC(C)C)NC(=O)[C@H](CCCN)NC(=O)[C@H](CCCNC(=N)N)NC(=O)[C@H](C)NC(=O)[C@H](CO)NC(=O)[C@H](CC(C)C)NC(=O)[C@H](CCC(N)=O)NC(=O)[C@H](CC)NC(=O)[C@H](CC(C)C)NC(=O)[C@@H](NC(=O)[C@H](CCCN)NC(=O)[C@H](CCCNC(=N)N)NC(=O)[C@H](Cc1ccc(O)cc1)NC(=O)[C@H](CO)NC(=O)[C@H](CCC(N)=O)NC(=O)[C@@H](NC(=O)[C@H](Cc1ccccc1)NC(=O)[C@@H](NC(=O)[C@H](C)NC(=O)[C@H](CC(=O)O)NC(=O)[C@H](C)NC(=O)CCc1ccc(O)cc1)[C@@H](C)CC)[C@@H](C)O)C(C)C)[C@@H](C)CC)C(=O)N[C@@H](CC(=O)O)C(=O)N[C@@H](CCCNC(=N)N)C(=O)NCCCCC(N)=O
In assay [1], B6 gave a 50% inhibitory concentration (IC50) of 2.04 nM, a Relative affinity (Binding potency) compared to JI-38 of 1.34 JI-38 = 1 and a Relative affinity (Binding potency) compared to hGHRH(1-29) (hGHRH(1-29)NH2 = 1) of 3.75. Moreover, in assay [2], the IC50 came out at 1.99 nM and the Relative affinity (Binding potency) vs JI-38 was found to be 2.18 JI-38 = 1.

In general, IC50 refers to the midpoint of a concentration-inhibition curve.
